Assay [1] has as its target recombinant mature human GDF-15 protein (as expressed in Baculovirus-transfected HighFive insect cells) (human) (UniProt Q99988). Description: SPR (Biorad ProteOn XPR36), KD=koff/kon.
The target of assay [2] is recombinant mature human GDF-15 protein derived from expression in E. coli (human) (UniProt Q99988). Briefly: SPR (Biorad ProteOn XPR36), E. coli GDF-15 immobilised, antibody as analyte.
In assay [3] the target is recombinant mature human GDF-15 protein (as expressed in Baculovirus-transfected HighFive insect cells) (human) (UniProt Q99988). Briefly: SPR (Biorad ProteOn XPR36, GLC chip), GDF-15 immobilised, antibody as analyte, 1:1 Langmuir fit, 25 C.

A word on the Kd: it is the concentration at which binding is half-saturated. As usually defined, the koff is the first-order rate constant of dissociation. Usually kon stands for a measure of how fast the partners come together. “monoclonal anti-human GDF-15 mAb-B1-23 (antibody)”: the Kd in assay [1] was 0.79 nM. In assay [2], the deviation of rate constants against GDF-15 derived from insect cells is 45% and the fold difference of affinity values against GDF-15 derived from insect cells is < 2 fold. Also, in assay [3], the koff was determined as 0.00043 s⁻¹ and the on-rate (kon) came to 540000 M⁻¹ s⁻¹.

(Values after patent US20230408521A1.)
